In patent US20260116980A1 (BEONE MEDICINES I, published 2026):

T1: cyno B7H3 on overexpressing cells (cyno, UniProt A0A7N9CYV2 29-534)
T1 sequence: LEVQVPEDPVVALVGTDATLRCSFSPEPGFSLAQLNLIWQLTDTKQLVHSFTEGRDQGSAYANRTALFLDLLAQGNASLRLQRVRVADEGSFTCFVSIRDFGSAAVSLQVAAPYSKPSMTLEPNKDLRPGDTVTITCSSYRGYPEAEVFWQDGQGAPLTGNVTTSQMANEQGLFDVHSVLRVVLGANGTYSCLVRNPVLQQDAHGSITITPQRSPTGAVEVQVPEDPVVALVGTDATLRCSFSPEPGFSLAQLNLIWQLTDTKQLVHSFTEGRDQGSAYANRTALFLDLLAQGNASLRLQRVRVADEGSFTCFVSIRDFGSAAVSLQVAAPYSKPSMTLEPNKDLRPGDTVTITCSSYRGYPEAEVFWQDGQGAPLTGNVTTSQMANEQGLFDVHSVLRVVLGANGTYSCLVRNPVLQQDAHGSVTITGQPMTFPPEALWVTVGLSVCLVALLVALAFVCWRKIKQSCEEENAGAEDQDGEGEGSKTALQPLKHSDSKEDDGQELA

T2: human 4Ig-B7H3 on overexpressing cells (NK92mi/B7H3) (human, UniProt Q5ZPR3 29-534)
T2 construct: also called Human B7H3; native B7H3
T2 sequence: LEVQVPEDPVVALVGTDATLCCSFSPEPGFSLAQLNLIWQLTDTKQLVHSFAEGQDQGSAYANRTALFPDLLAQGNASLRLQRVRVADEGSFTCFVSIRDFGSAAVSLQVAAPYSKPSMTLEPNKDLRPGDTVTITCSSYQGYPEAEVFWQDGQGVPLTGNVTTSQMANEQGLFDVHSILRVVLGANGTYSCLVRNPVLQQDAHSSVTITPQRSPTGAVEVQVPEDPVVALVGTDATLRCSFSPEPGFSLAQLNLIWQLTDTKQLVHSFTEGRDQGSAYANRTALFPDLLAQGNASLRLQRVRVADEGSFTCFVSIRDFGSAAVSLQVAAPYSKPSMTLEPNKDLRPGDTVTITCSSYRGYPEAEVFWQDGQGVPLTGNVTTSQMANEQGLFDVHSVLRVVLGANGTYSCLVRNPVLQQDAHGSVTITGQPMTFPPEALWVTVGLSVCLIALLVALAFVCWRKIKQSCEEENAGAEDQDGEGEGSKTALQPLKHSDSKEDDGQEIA

T3: human ECD-4Ig-B7H3-hFc (human, UniProt Q5ZPR3 29-466)
T3 construct: also called Human B7H3; human B7H3 antigen
T3 sequence: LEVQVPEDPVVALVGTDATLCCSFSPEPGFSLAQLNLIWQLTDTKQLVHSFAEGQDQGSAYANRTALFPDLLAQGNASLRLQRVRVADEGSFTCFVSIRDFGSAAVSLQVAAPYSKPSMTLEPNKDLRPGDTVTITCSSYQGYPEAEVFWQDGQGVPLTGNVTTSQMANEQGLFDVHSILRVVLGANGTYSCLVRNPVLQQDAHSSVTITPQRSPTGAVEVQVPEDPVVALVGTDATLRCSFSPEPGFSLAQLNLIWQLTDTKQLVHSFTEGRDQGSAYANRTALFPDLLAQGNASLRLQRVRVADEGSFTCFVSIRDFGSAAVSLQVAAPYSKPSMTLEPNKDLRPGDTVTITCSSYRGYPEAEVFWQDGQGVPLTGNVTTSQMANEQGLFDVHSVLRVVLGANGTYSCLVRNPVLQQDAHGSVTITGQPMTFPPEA

T4: ECD of human 4Ig-B7H3 (Sinobiological, Cat: 11188-H08H) (human, UniProt Q5ZPR3 29-466)
T4 construct: Bought protein; also called recombinant B7H3
T4 sequence: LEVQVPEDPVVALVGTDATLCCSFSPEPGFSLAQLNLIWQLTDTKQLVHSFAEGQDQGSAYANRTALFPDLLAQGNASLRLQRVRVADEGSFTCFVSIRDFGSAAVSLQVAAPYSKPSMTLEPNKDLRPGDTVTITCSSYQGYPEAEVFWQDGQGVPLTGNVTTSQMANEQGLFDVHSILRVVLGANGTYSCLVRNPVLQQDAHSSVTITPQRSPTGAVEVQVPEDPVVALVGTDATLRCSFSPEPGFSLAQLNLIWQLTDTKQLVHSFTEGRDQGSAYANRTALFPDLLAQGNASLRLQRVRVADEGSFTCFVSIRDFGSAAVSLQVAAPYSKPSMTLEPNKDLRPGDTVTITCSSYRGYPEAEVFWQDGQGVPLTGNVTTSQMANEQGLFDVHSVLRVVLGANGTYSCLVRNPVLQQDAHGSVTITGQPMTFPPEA

B1: BGA-3726 (purified anti-B7H3 mAb as used in Examples 2-4) (antibody, V domains shown)
VH: QVQLQESGPGLVKPSGTLSLTCAVSGGSISTSNWWNWVRQSPGKGLEWIGEIYPTGNTNYSPSLKSRVTISIDKSKNQFSLKLNSVTAADTAVYYCARGWNWFDPWGQGTLVTVSS
VL: EIVLTQSPGTLSLSPGERATLSCRTSQSINGILLAWYQQKPGQAPRLLIYGASSRATGIPDRFSGSGSGTDFTLSISRLEPEDFAVYYCQQYGSSPRTFGQGTKVEIK
notes: It was captured by anti-mouse IgG Fc in SPR and detected with anti-mouse IgG in FACS; The source mice make human variable and rat constant regions; also called BGA-3276
B2: BGA-3726 in human full-length format (human IgG1 variant IgG1mf / kappa) (antibody, V domains shown)
VH: QVQLQESGPGLVKPSGTLSLTCAVSGGSISTSNWWNWVRQSPGKGLEWIGEIYPTGNTNYSPSLKSRVTISIDKSKNQFSLKLNSVTAADTAVYYCARGWNWFDPWGQGTLVTVSS
VL: EIVLTQSPGTLSLSPGERATLSCRTSQSINGILLAWYQQKPGQAPRLLIYGASSRATGIPDRFSGSGSGTDFTLSISRLEPEDFAVYYCQQYGSSPRTFGQGTKVEIKR
B3: BGA-6938 (W34Y in HCDR1, W96Y in HCDR3 and G30A in LCDR1 based on BGA-3726), human IgG1 variant IgG1mf / kappa format (antibody, V domains shown)
VH: QVQLQESGPGLVKPSGTLSLTCAVSGGSISTSNYWNWVRQSPGKGLEWIGEIYPTGNTNYSPSLKSRVTISIDKSKNQFSLKLNSVTAADTAVYYCARGYNWFDPWGQGTLVTVSS
VL: EIVLTQSPGTLSLSPGERATLSCRTSQSINAILLAWYQQKPGQAPRLLIYGASSRATGIPDRFSGSGSGTDFTLSISRLEPEDFAVYYCQQYGSSPRTFGQGTKVEIKR
B4: BGA-5488 (W34Y in HCDR1, W96Y and W98Y in HCDR3 and G30A in LCDR1 based on BGA-3726) (antibody, human IgG1, kappa, V domains shown)
VH: QVQLQESGPGLVKPSGTLSLTCAVSGGSISTSNYWNWVRQSPGKGLEWIGEIYPTGNTNYSPSLKSRVTISIDKSKNQFSLKLNSVTAADTAVYYCARGYNYFDPWGQGTLVTVSS
VL: EIVLTQSPGTLSLSPGERATLSCRTSQSINAILLAWYQQKPGQAPRLLIYGASSRATGIPDRFSGSGSGTDFTLSISRLEPEDFAVYYCQQYGSSPRTFGQGTKVEIKR
B5: BGA-4826 (BGA-3726 variant comprising W34Y in HCDR1) (antibody, human IgG1, kappa, V domains shown)
VH: QVQLQESGPGLVKPSGTLSLTCAVSGGSISTSNYWNWVRQSPGKGLEWIGEIYPTGNTNYSPSLKSRVTISIDKSKNQFSLKLNSVTAADTAVYYCARGWNWFDPWGQGTLVTVSS
VL: EIVLTQSPGTLSLSPGERATLSCRTSQSINGILLAWYQQKPGQAPRLLIYGASSRATGIPDRFSGSGSGTDFTLSISRLEPEDFAVYYCQQYGSSPRTFGQGTKVEIKR
B6: BGA-4265 (BGA-3726 variant comprising G30A in LCDR1) (antibody, human IgG1, kappa, V domains shown)
VH: QVQLQESGPGLVKPSGTLSLTCAVSGGSISTSNWWNWVRQSPGKGLEWIGEIYPTGNTNYSPSLKSRVTISIDKSKNQFSLKLNSVTAADTAVYYCARGWNWFDPWGQGTLVTVSS
VL: EIVLTQSPGTLSLSPGERATLSCRTSQSINAILLAWYQQKPGQAPRLLIYGASSRATGIPDRFSGSGSGTDFTLSISRLEPEDFAVYYCQQYGSSPRTFGQGTKVEIKR
B7: BGA-4498 (BGA-3726 variant comprising W96Y in HCDR3) (antibody, human IgG1, kappa, V domains shown)
VH: QVQLQESGPGLVKPSGTLSLTCAVSGGSISTSNWWNWVRQSPGKGLEWIGEIYPTGNTNYSPSLKSRVTISIDKSKNQFSLKLNSVTAADTAVYYCARGYNWFDPWGQGTLVTVSS
VL: EIVLTQSPGTLSLSPGERATLSCRTSQSINGILLAWYQQKPGQAPRLLIYGASSRATGIPDRFSGSGSGTDFTLSISRLEPEDFAVYYCQQYGSSPRTFGQGTKVEIKR
B8: BGA-4380 (BGA-3726 variant comprising N29Q in LCDR1) (antibody, human IgG1, kappa, V domains shown)
VH: QVQLQESGPGLVKPSGTLSLTCAVSGGSISTSNWWNWVRQSPGKGLEWIGEIYPTGNTNYSPSLKSRVTISIDKSKNQFSLKLNSVTAADTAVYYCARGWNWFDPWGQGTLVTVSS
VL: EIVLTQSPGTLSLSPGERATLSCRTSQSIQGILLAWYQQKPGQAPRLLIYGASSRATGIPDRFSGSGSGTDFTLSISRLEPEDFAVYYCQQYGSSPRTFGQGTKVEIKR
B9: BGA-4269 (BGA-3726 variant comprising W98Y in HCDR3) (antibody, human IgG1, kappa, V domains shown)
VH: QVQLQESGPGLVKPSGTLSLTCAVSGGSISTSNWWNWVRQSPGKGLEWIGEIYPTGNTNYSPSLKSRVTISIDKSKNQFSLKLNSVTAADTAVYYCARGWNYFDPWGQGTLVTVSS
VL: EIVLTQSPGTLSLSPGERATLSCRTSQSINGILLAWYQQKPGQAPRLLIYGASSRATGIPDRFSGSGSGTDFTLSISRLEPEDFAVYYCQQYGSSPRTFGQGTKVEIKR

Assays:
[1] = target: T1, cyno B7H3 on overexpressing cells; experiment: FACS on cyno B7H3 overexpressing cells
Experimental: (§1) The binding affinity of anti-B7H3 mAb to human 4Ig-B7H3 and cyno B7H3 overexpressing cell lines were determined by FACS. Briefly, human or cyno B7H3 overexpressing cells were incubated with serially diluted purified antibodies, washed, and incubated with anti-mouse IgG secondary Ab conjugated to APC. After incubation and washing, fluorescence was measured by flow cytometry.

[2] = target: T2, human 4Ig-B7H3 on overexpressing cells …; experiment: FACS on human 4Ig-B7H3 overexpressing cells
Experimental: as §1

human ECD-4Ig-B7H3-hFc = target: T3, human ECD-4Ig-B7H3-hFc; experiment: SPR (BIAcore T-200), antibody captured by anti-mouse IgG Fc, antigen in flow, 1:1 Langmuir model
Excerpt: After immobilization, serial dilutions of the ectodomain of human or cyno B7H3 were passed over the chip. […] Thus, the light gray lines are serial dilutions of human B7H3 protein, and the dark gray lines are fitted curves corresponding to different human B7H3 concentrations. The dotted line is the highest concentration of B7H3 protein. The results were used to calculate the rates of association (Kon) and dissociation (Koff) for BGA-3295.
Briefly, anti-mouse IgG Fc antibody was immobilized on an activated CM5 biosensor chip (Cat. No. BR100530, GE Life Sciences). Purified antibodies were flowed over the chip surface and captured by anti-mouse IgG Fc antibody. Then a serial dilution of human ECD-4Ig-B7H3-hFc was flowed over the chip surface and changes in surface plasmon resonance signals were analyzed to calculate the association rates (kₒₙ) and dissociation rates (koff) by using the one-to-one Langmuir binding model (BIA Evaluation Software, GE Life Sciences). The equilibrium dissociation constant (KD) was calculated as the ratio koff/kₒₙ.

[3] = target: T4, ECD of human 4Ig-B7H3 (Sinobiological, …); experiment: SPR, antibody captured on anti-human Fc surface, Test 2
Excerpt: (§2) For affinity determination, antibodies were captured by an anti-human Fc surface, and used in the affinity-assay based on surface plasmon resonance (SPR) technology. The results of SPR-determined binding profiles of anti-B7H3 antibodies to the ECD of human 4Ig-B7H3 (Sinobiological, Cat: 11188-H08H) are summarized in Table 5.

[4] = target: T2, human 4Ig-B7H3 on overexpressing cells …; experiment: FACS on live NK92mi/B7H3 cells, goat anti-human IgG detection, Test1
Experimental: (§3) Goat anti-human IgG was used as the second antibody to detect antibody binding to the cell surface. EC₅₀ values for dose-dependent binding to human native B7H3 were determined by fitting the dose-response data to the four-parameter logistic model with GraphPad Prism.

[5] = target: T4, ECD of human 4Ig-B7H3 (Sinobiological, …); experiment: SPR, antibody captured on anti-human Fc surface, Test 1
Excerpt: as §2

[6] = target: T2, human 4Ig-B7H3 on overexpressing cells …; experiment: FACS on live NK92mi/B7H3 cells, goat anti-human IgG detection, Test2
Experimental: as §3

Binder	Kd [3]	koff [3]	kon [3]	Kd [5]	koff [5]	kon [5]	further results
B1	–	–	–	–	–	–	EC50 [1]: 1.32 nM; EC50 [2]: 1.91 nM; Kd (human ECD-4Ig-B7H3-hFc): 0.0124 nM; koff (human ECD-4Ig-B7H3-hFc): 4.49e-06 s⁻¹; kon (human ECD-4Ig-B7H3-hFc): 363000 M⁻¹ s⁻¹
B2	0.47 nM	0.000207 s⁻¹	442000 M⁻¹ s⁻¹	0.424 nM	0.000136 s⁻¹	321000 M⁻¹ s⁻¹	EC50 [4]: 1.44 nM
B3	0.443 nM	0.000224 s⁻¹	506000 M⁻¹ s⁻¹	–	–	–	EC50 [6]: 1.19 nM
B4	1.11 nM	0.000326 s⁻¹	295000 M⁻¹ s⁻¹	–	–	–	EC50 [6]: 1.45 nM
B5	–	–	–	0.596 nM	0.000171 s⁻¹	288000 M⁻¹ s⁻¹	–
B6	–	–	–	0.308 nM	0.000128 s⁻¹	414000 M⁻¹ s⁻¹	–
B7	–	–	–	0.632 nM	0.000199 s⁻¹	315000 M⁻¹ s⁻¹	–
B8	–	–	–	0.635 nM	0.000237 s⁻¹	373000 M⁻¹ s⁻¹	–
B9	–	–	–	–	–	142000 M⁻¹ s⁻¹	–
